Patent publication US6969760B2, “Jak kinases and regulation of cytokine signal transduction” (St. Jude Children's Research Hospital, priority 1993, dated 2005)

Experiments:
[1] = tested on: wild-type 2C4 and γ-1/Jak2 transfectants; experiment: IFN-γ response (cell surface markers, IFN-inducible mRNAs) of wild-type 2C4 and γ-1/Jak2 transfectants; format: cell-based, human
Experimental: Cell surface expression of transfected CD2 and endogenous Class I and II HLAs in response to IFNs-α or -γ on wild-type 2C4, mutant γ-1 cells and mutant γ-1 cells stably transfected with a murine Jak2 cDNA expression construct. Data was generated for an enriched population and a clone of γ-1/Jak2 transfectants using FACSCAN (BECTON DICKINSON) analyses (3000 data points, Consort 30). Cells were plated at 5×10^5/10 cm dish and treated the following day with 10^3 IU/ml of a highly purified mixture of α-IFNs (WELLFERON 1.5×10^8 IU/mg protein, kindly supplied by WELLCOME […]. LABORATORIES, Beckenham, UK) or recombinant human IFN-γ (4×10^7 IU/mg protein, obtained from Dr. Gunter Adolf, Ernst Boehringer Institut fur Arzneimittelforschung, Vienna, Austria, and commercially or readily available). […]
IFN-inducible gene expression in wild type 2C4, mutant γ-1 and mutant γ-1/Jak2 transfected cells: mRNA expression in response to IFNs-α or -γ was monitored by RNase protection using probes to detect the IFN-inducible mRNAs of: the 9-27, 6-16, 2-5A synthetase and ISGF3γ genes and the p91 and p84 alternatively spliced products of the p91/84 ISGF3α gene and the IRF1 and GBP genes. […]

EMC virus = experiment: Antiviral assay versus EMC virus; format: cell-based; conditions: per 1 fmole of 125I-IFN-γ
Experimental: Binding of ^125I-labeled IFN-γ to 2C4 and mutant γ-1 cells: ^125I-IFN-γ (667 Ci/mMole, Amersham International, UK) treatment was of triplicate samples of 10^6 cells for 90 min at 0° C. Non-specific binding was subtracted. It was determined in parallel in the presence of a 200 fold excess of unlabeled IFN-γ and represented approximately 40% of the total radioactivity bound. In a parallel antiviral assay versus EMC virus 1 fmole of ^125I-IFN-γ was equivalent to 0.15 IU. Specific binding at the highest IFN-γ concentration here corresponded to about 6000 receptors per cell.

Jak3 and Jak1 = experiment: IL-2/IL-4-induced tyrosine phosphorylation of Jaks in CTLL cells; format: cell-based, murine
Experimental: IL-2 and IL-4 stimulation of Jak1 and Jak3 tyrosine phosphorylation and activation of Jak3 in vitro kinase activity. FIG. 9A: CTLL cells were deprived of growth factors for 14 hr and were either left unstimulated (lanes 1, 4, 7 and 10), were stimulated with 100 U/ml with IL-2 (Cetus) for 10 min (lanes 2,5,8 and 11) or were stimulated with 100 ng/ml of IL-4 (R&D) for 10 min (lanes 3, 6, 9 and 12). Extracts were prepared as previously described (Witthuhn et al., Cell: 227-236 (1993)) and used for immunoprecipitation with the indicated antisera. The immunoprecipitates were resolved by SDS-PAGE, electrophoretically transferred to nitrocellulose and the membranes were probed with the 4G10 monoclonal antibody (UBI) against phosphotyrosine. FIG. 9B: CTLL cells were deprived of growth factors for 14 hr and were either unstimulated (lane 1), stimulated with IL-2 (lane 2) or stimulated with IL-4 (lane 3) as above. Extracts were prepared and used for immunoprecipitation with the Jak3/Jak1 cross-reactive antipeptide antiserum against Tyk2. The immunoprecipitates were used in in vitro kinase assays as previously described (Witthuhn et al., Cell: 227-236 (1993)) and the products resolved by SDS-PAGE and visualized by autoradiography. […]

B1: IFN-γ: recombinant human IFN-γ (4×10^7 IU/mg protein) (protein)
chain: QDPYVKEAENLKKYFNAGHSDVADNGTLFLGILKNWKEESDRKIMQSQIVSFYFKLFKNFKDDQSIQKSVETIKEDMNVKFFNSNKKKRDDFEKLTNYSVTDLNVQRKAIHELIQVMAELSPAAKTGKRKRSQMLFRGRRASQ
[1]
  IFN-γ concentration giving an approaching maximal response: 100 IU/ml
[1]; dose response curves essentially identical
  IFN-γ concentration giving a clear response: 10 IU/ml

B2: ^125I-IFN-γ: 125I-labeled IFN-γ (667 Ci/mMole, Amersham) (protein)
chain: QDPYVKEAENLKKYFNAGHSDVADNGTLFLGILKNWKEESDRKIMQSQIVSFYFKLFKNFKDDQSIQKSVETIKEDMNVKFFNSNKKKRDDFEKLTNYSVTDLNVQRKAIHELIQVMAELSPAAKTGKRKRSQMLFRGRRASQ
EMC virus
  antiviral activity equivalent of 1 fmole: 0.15 IU

B3: IL-4: IL-4 (R&D), cytokine (protein, UniProt P05112 25-153, looked up)
Interleukin-4: HKCDITLQEIIKTLNSLTEQKTLCTELTVTDIFAASKNTTEKETFCRAATVLRQFYSHHEKDTRCLGATAQQFHRHKQLIRFLKRLDRNLWGLAGLNSCPVKEANQSTLENFLERLKTIMREKYSKCSS
Jak3 and Jak1
  onset of phosphorylation of the Jaks following stimulation: detectable within one minute
